Here are results for 8 molecules from patent EP4714976A1 (Sunshine Lake Pharma Co., Ltd., dated 2026).

In test [1] the target is T1, FGFR2b on KATO III cells (human, UniProt P21802-3 22-822).
T1 construct: whole, on cells; also called KATO III cells that overexpress FGFR2b
The test can be described thus: flow cytometry, KATO III cells.

Test [2] concerns the target T2, human FGFR2b (Kaixia Biotechnology, catalog number FGR-HM1BB) (human, UniProt P21802-3 22-378).
T2 construct: extracellular domain; bought; also called hFGFR2b; human FGFR2b protein
The test can be described thus: ELISA, FGFR2b coated at 1 µg/ml.

The target in test [3] is T2, human FGFR2b (Kaixia Biotechnology, …). The test can be described thus: BLI, antibody on AHC2 sensor.
Test [4] deals with FGFR2c (acro) (UniProt P21802 22-377). The test can be described thus: ELISA, antibody 10 µg/mL.
FGFR2c (acro), sequence (P21802 22-377): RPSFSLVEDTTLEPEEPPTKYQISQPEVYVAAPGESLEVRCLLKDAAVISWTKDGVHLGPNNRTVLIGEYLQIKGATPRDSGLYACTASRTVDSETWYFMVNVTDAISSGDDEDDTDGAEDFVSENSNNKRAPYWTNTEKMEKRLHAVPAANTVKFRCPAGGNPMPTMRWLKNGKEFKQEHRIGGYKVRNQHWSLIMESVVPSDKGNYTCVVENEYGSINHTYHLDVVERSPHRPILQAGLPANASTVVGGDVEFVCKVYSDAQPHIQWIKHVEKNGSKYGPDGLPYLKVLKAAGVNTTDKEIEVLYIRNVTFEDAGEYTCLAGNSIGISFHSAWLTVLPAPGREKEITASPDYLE
Test [5] deals with T3, recombinant cynomolgus monkey FGFR2b (cynomolgus monkey).
T3 construct: extracellular domain; bought; also called cynomolgus macaque FGFR2b
The test can be described thus: ELISA, antibody 1ug/mL.

The target in test [6] is T4, extracellular domain of FGFR2c protein (Example 1) (UniProt P21802 22-377).
T4 construct: extracellular domain
T4 sequence (P21802 22-377): as above
The test can be described thus: phage ELISA.

T2 sequence (P21802 other isoform, or with tags, fused parts or gaps): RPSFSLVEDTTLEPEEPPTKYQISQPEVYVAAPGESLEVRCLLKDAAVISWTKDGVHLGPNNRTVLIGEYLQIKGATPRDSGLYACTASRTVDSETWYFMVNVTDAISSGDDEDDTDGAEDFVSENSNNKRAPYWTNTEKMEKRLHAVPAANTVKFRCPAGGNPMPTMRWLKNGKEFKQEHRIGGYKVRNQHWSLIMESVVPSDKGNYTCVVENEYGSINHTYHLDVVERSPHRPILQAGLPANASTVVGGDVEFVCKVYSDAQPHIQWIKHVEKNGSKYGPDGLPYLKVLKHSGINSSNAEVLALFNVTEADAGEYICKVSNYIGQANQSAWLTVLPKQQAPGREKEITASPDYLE
T1 sequence (P21802 other isoform, or with tags, fused parts or gaps): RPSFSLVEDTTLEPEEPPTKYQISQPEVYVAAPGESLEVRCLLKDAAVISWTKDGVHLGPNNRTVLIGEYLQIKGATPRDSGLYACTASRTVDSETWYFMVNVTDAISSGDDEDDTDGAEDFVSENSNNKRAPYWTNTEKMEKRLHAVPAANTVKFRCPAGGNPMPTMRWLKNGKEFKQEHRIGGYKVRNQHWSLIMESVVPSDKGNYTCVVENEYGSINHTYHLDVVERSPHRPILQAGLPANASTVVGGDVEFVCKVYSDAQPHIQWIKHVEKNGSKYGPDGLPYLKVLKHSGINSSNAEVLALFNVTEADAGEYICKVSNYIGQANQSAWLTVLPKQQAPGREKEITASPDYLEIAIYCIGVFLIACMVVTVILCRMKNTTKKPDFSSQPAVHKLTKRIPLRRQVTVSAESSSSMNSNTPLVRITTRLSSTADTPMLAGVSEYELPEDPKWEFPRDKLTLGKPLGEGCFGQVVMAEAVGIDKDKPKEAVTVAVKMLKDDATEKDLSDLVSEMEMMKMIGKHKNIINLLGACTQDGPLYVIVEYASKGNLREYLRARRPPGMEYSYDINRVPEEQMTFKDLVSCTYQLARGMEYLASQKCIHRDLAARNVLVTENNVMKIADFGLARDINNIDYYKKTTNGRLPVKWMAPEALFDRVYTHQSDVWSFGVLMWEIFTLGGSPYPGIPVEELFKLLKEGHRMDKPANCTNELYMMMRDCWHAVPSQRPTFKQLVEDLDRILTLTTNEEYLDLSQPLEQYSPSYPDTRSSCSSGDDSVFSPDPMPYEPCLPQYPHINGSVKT

B1: 3B4 scFv-Fc (Fc fusion)
chain: EVQLQQSGADLVKPGASVKMSCKASGYTFSYYNMHWVRRTPGQGLEWIGLIYPDNGDTSYNQKFKGKATLTADTSSSTAYMQLSSLTSEDSAVYYCARGGLDYWGQGTTLTVSSGGGGSGGGGSGGGGSDIQMIQSPASMSASVGETVTITCGASENIYGALNWYQRKQGKSPQLLIYGATNLADGMSSRFSGSGSGRQYSLKISSLHPDDVATYYCQNVLSTPYTFGGGTKLEMKESKYGPPCPPCPAPEAAGGPSVFLFPPKPKDTLMISRTPEVTCVVVDVSQEDPEVQFNWYVDGVEVHNAKTKPREEQFNSTYRVVSVLTVLHQDWLNGKEYKCKVSNKGLPSSIEKTISKAKGQPREPQVYTLPPSQEEMTKNQVSLTCLVKGFYPSDIAVEWESNGQPENNYKTTPPVLDSDGSFFLYSKLTVDKSRWQEGNVFSCSVMHEALHNHYTQKSLSLSLG
notes: scFv-Fc dimer
In test [1], B1 had a concentration giving a half-maximal response (EC50) of 0.168 µg/mL. Also, the EC50 in test [2] is 0.0166 µg/mL. Moreover, in test [3], the Kd is 6.28 nM, the koff turned out to be 0.00195 s⁻¹ and the kon amounted to 311000 M⁻¹ s⁻¹. In addition, the “OD (450 nm) value” in test [4] was determined as 0.327. The “OD (450 nm) value” in test [5] was determined as 3.32.

B2: 3E3 scFv-Fc (Fc fusion)
chain: QVQLQQPGAVLVKPGASVRMSCKASGYTFPYYNVHWVKRTPGQGLEWIGLIYPDNGDTSYNQKFTGKATLTADTSSSTAYMQLSSLTSEDSAVYYCARGGLDYWGQGTTLTVSAGGGGSGGGGSGGGGSDVQITQSPASLSASVGETVTITCGASENIYGALNWYQRKQGKSPQLLIYGATNLADGMSSRFSGSGSGRQYSLKISSLHPDDVATYYCQNVLSTPYTFGGGTKLEIKESKYGPPCPPCPAPEAAGGPSVFLFPPKPKDTLMISRTPEVTCVVVDVSQEDPEVQFNWYVDGVEVHNAKTKPREEQFNSTYRVVSVLTVLHQDWLNGKEYKCKVSNKGLPSSIEKTISKAKGQPREPQVYTLPPSQEEMTKNQVSLTCLVKGFYPSDIAVEWESNGQPENNYKTTPPVLDSDGSFFLYSKLTVDKSRWQEGNVFSCSVMHEALHNHYTQKSLSLSLG
notes: scFv-Fc dimer
B2 returned an EC50 in test [1] of 0.376 µg/mL. The molecule further displayed an EC50 in test [2] of 0.0273 µg/mL. Moreover, in test [3], the Kd was found to be 8.18 nM, the koff is 0.00184 s⁻¹ and the kon amounted to 225000 M⁻¹ s⁻¹. In test [5], the “OD (450 nm) value” turned out to be 3.09.

B3: 3A8 scFv-Fc (Fc fusion)
chain: QVQLQQSGAELVKPGASVKMSCKASGYTFTIYNIHWVRQTPGQGLEWIGLIYPDNGDTSYNQKFKAKATLTADKSSSTAYMQLSSLTSEDSAVYYCARGGFDYWGQGTSLTVSSGGGGSGGGGSGGGGSDIVMTQSQKFMSTSVGDRVSVTCKASQNVGTNVAWYQQKPGQSPKALIYSASYRYSGVPDRFTGSGSGTDFTLTISNVQAEDLADYFCQQHYSTPYTFGGGTKLEMKESKYGPPCPPCPAPEAAGGPSVFLFPPKPKDTLMISRTPEVTCVVVDVSQEDPEVQFNWYVDGVEVHNAKTKPREEQFNSTYRVVSVLTVLHQDWLNGKEYKCKVSNKGLPSSIEKTISKAKGQPREPQVYTLPPSQEEMTKNQVSLTCLVKGFYPSDIAVEWESNGQPENNYKTTPPVLDSDGSFFLYSKLTVDKSRWQEGNVFSCSVMHEALHNHYTQKSLSLSLG
notes: scFv-Fc dimer
Molecule B3 came in with an EC50 in test [1] of 0.199 µg/mL. In test [2], the response was half-maximal at 0.0278 µg/mL (EC50). In addition, in test [3], the Kd amounted to 3.48 nM, the koff was found to be 0.0009 s⁻¹ and the on-rate (kon) came out at 259000 M⁻¹ s⁻¹.

B4: 1A3 scFv displayed on phage (scFv)
scFv: QVQLQQPGAELVKPGASVKMSCKASGYTFASYNLHWVKQTPGQGLEWIGLIYPENGDTSYNQKFKGKATLTADKSSSTAYIQLSSLTSEDSAVYFCARGGFDYWGQGTTLTVSQGGGGSGGGGSGGGGSDIQMTQSPASLSASVGETVTITCGASENIYGALNWYQRKQGKSPQLLIYGATNLADGMSSRFSGSGSGRQYSLKISSLHPDDVATYYCQNVLSTPYTFGGGTKLEIK
On to B4, for which, in test [6], the “OD (450 nm) value” is 0.212.

B5: 3D6 scFv-Fc (Fc fusion)
chain: QVQLQQSGAELVKPGASVKMSCKASGYTFRYYNMHWVKRTPGQGLEWIGLIYPDNGDTSYNQKFKGKATLTADTSSSTAYMQLSSLTSEDSAVYYCARGGLDYWGQGTSLTVSSGGGGSGGGGSGGGGSDIQMTQSPASLSVSVGETVTITCRASENIYSNLAWYQQKQGKSPQLLVYNAKTLADGVPSRFSGSGSGTQYSLKINSLQPEDFGSYYCQHFWSTPFTFGSGTKLELKESKYGPPCPPCPAPEAAGGPSVFLFPPKPKDTLMISRTPEVTCVVVDVSQEDPEVQFNWYVDGVEVHNAKTKPREEQFNSTYRVVSVLTVLHQDWLNGKEYKCKVSNKGLPSSIEKTISKAKGQPREPQVYTLPPSQEEMTKNQVSLTCLVKGFYPSDIAVEWESNGQPENNYKTTPPVLDSDGSFFLYSKLTVDKSRWQEGNVFSCSVMHEALHNHYTQKSLSLSLG
notes: scFv-Fc dimer
Take B5: the EC50 in test [1] was 0.136 µg/mL; in test [2], 0.0369 µg/mL. The molecule further returned a Kd in test [3] of 15 nM. For the same molecule, the koff in test [3] was determined as 0.00114 s⁻¹. This molecule also came in with a kon in test [3] of 75900 M⁻¹ s⁻¹. In addition, the “OD (450 nm) value” in test [4] is 0.542; in test [5], 3.4.

B6: 1C10 scFv-Fc (Fc fusion)
chain: QVQLQQSGAELVKPGASVKMSCKASGYTFRYYNMHWVKRTPGQGLEWIGLIYPDNGDTSYNQKFKGKATLTADTSSSTAYMQLSSLTSEDSAVYYCARGGLDYWGQGTSLTVSSGGGGSGGGGSGGGGSDIVMTQSPASLSASVGETVTITCRASGNIHNYLAWYQQKQGKSPQLLVYNAKTLADGVPSRFSGSGSGTQYSLKINSLQPEDFGSYYCQHFWSTPYTFGGGTKLEMKESKYGPPCPPCPAPEAAGGPSVFLFPPKPKDTLMISRTPEVTCVVVDVSQEDPEVQFNWYVDGVEVHNAKTKPREEQFNSTYRVVSVLTVLHQDWLNGKEYKCKVSNKGLPSSIEKTISKAKGQPREPQVYTLPPSQEEMTKNQVSLTCLVKGFYPSDIAVEWESNGQPENNYKTTPPVLDSDGSFFLYSKLTVDKSRWQEGNVFSCSVMHEALHNHYTQKSLSLSLG
notes: scFv-Fc dimer
The molecule B6 showed a half-maximal effective concentration (EC50) in test [1] of 0.152 µg/mL. In test [2], this molecule gave a half-maximal effective concentration (EC50) of 0.0159 µg/mL. Moreover, in test [3], binding was put at a Kd of 11.1 nM, the koff was determined as 0.00278 s⁻¹ and the kon was 250000 M⁻¹ s⁻¹. The “OD (450 nm) value” in test [4] was 0.553. Further, in test [5], the “OD (450 nm) value” is 3.3.

B7: 3D7 scFv displayed on phage (scFv)
scFv: QVQLQQSGAELVKPGASVKMSCKASGYTFSFYNMHWVKRTPGRGLEWIGLIYPDNGDTSYNQKFKGKATLTADTSSSTAYMQLSSLTSEDSAVYYCARGGLDYWGQGTSLTVSSGGGGSGGGGSGGGGSEIVLTQSPASLAVSLGQRATISCKASQSVDYDGDSYMNWYQQKPGQPPKLLIYGISNRFSGVPDRFSGSGSGTDFTLKISTIKPEDLGMYYCLQGTHQPYTFGGGTKLEIK
Consider B7, for which, in test [6], the “OD (450 nm) value” stood at 0.037.

B8: 1G6 scFv-Fc (Fc fusion)
chain: EIQLQQSGAELVKPGASVKMSCKASGYTFRYYNMHWVKRTPGQGLEWIGLIYPDNGDTSYNQKFKGKATLTADTSSSTAYMQLSSLTSEDSAVYYCARGGLDYWGQGTSLTVSSGGGGSGGGGSGGGGSNIVMTQSHKFMSTSVGDRVSITCKASQDVNTDVAWYQQKPGQSPKLLIYSASYRYTGVPTRFTGSGSGTDFTFTISGVQAEDLADYYCQQHYNTPYTFGGGTKLELKESKYGPPCPPCPAPEAAGGPSVFLFPPKPKDTLMISRTPEVTCVVVDVSQEDPEVQFNWYVDGVEVHNAKTKPREEQFNSTYRVVSVLTVLHQDWLNGKEYKCKVSNKGLPSSIEKTISKAKGQPREPQVYTLPPSQEEMTKNQVSLTCLVKGFYPSDIAVEWESNGQPENNYKTTPPVLDSDGSFFLYSKLTVDKSRWQEGNVFSCSVMHEALHNHYTQKSLSLSLG
notes: scFv-Fc dimer
B8 gave a half-maximal effective concentration (EC50) in test [1] of 0.186 µg/mL. In test [2], this molecule had an EC50 of 0.0235 µg/mL. Besides, in test [3], the Kd was determined as 3.97 nM, the koff is 0.00149 s⁻¹ and the on-rate constant (kon) worked out at 374000 M⁻¹ s⁻¹. In test [5], the “OD (450 nm) value” worked out at 3.24.
